According to the DeepSol protein solubility set:

test: soluble on expression in E. coli; label from the status in PepcDB or PDB records

| Sequence | soluble on expression in E. coli |
| --- | --- |
| MGHHHHHHSHYPPIEFDKYKCKNSEDFYLFVGRLWHEKRPEEAIRGCIKAKKKIVVIGSGYLEKYLRDKYGKNPYVEIKGFVSEEEKVDLLASCKAVIYPCIAEDFGIVPIEAFASGKPVIADNSGFPPYVVNEERGIITDCSNPDNIAKAIEELEKKKYDPDKIREFAKQF | soluble |
| GAMGNICNSGGVSRTYSPPTSPVYGSGVSSPSRFVGQYTLTSIHQLSSEERENFLDAHDPMRVYDLNSETSVYRTTQREYVRNGYATGNPNSGAIIALHEELQESPYAQHIGARPDQADAYRPRTAHVSSLNTPSLNVMAGQGALSALRGYAGSDHVTTEMRLGDFLDQGGKVYSDTSAMSAGGDSVEALIVTLPKGRKVPVNILD | soluble |
| GMAFMEKIFPDILEAIRNEEIIKESKKIPMPYFGLFALVIFDKVKELGSETSLYEIGEEFGKMLSPKNIEELKKIFKLMNFGDLEIDENKILLKNPPYKIKLSNPPYQWVSKEEPIHDFIAGILAGCLEEIFYYYFVVNEVECVSQGKDKCVFEVKEVDELNK | soluble |
| MNFIIEPGSLADIDELERLYDELNDHLSATINYPGWIKGIYPVRENAAAGVDDNSLFVARCDGRIAGSVILDHQPEKAYENIVWKIDADYSYIFVVRTFVVHPSFLQMGVGHALMDFSLELALKSEMKSIRLDVYEKNLPAISLYEKCGFEYIDTVDLGLGHYGLDWFKLYEKVI | not soluble |
| GPLGSPEFPGEFYIPPEPSNDAIEIFSSGIASGIHFSKYNNIPVKVTGSDVPQPIQHFTSADLRDIIIDNVNKSGYKIPTPIQKCSIPVISSGRDLMACAQTGSGKTAAFLLPILSKLLEDPHELELGRPQVVIVSPTRELAIQIFNEARKFAFESYLKIGIVYGGTSFRHQNECITRGCHVVIATPGRLLDFVDRTFITFEDTRFVVLDEADRMLDMGFSEDMRRIMTHVTMRPEHQTLMFSATFPEEIQRMAGEFLKNYVFVAIGIVGGACSDVKQTIYEVNKYAKRSKLIEILSEQADGTIVFVETKRGADFLASFLSEKEFPTTSIHGDRLQSQREQALRDFKNGSMKVLIATSVASRGLDIKNIKHVINYDMPSKIDDYVHRIGRTGRVGNNGRATSFFDPEKDRAIAADLVKILEGSGQTVPDFLRTC | soluble |
| MRIALIIFPIHASHGCILQTYALYRTLRKLGHDVSIIDRQWDKLSLKNQLVYAVKSLIISIKRKCIRPLTIEGTRKIIMSELQTFVDKHLSNRKIYFRTPRYEELPHYDAFIVGSDQTWRPKYVSDILYYYLCFVPAEEKVKRIAYAPSFGTEEWEYSEQQTLQCRELVSRFDAIAVREDSGAKLCGKYLGINVEHVLDPTMLLNKEDYLSETGIMPSEQNRLSYYLLDNSKSKMQIVEEICKELHLTVQRINTETENHKAGIKERVAPSIEKWIEGFVNSKFIVADSFHATVFAIIFNKHFITIANKDRGIARFESLLKMFGLENRLITDIRQVTPELVHESIDWGKVNQTMWAKQSSSLDYLKFNLGNI | not soluble |
| MGHHHHHHSHMLFIKFIHLEVFSMPERAIARHEVREIEQRHTMDGPRQDATLDEEEDMVIIYNRVPKTASTSFTNIAYDLCAKNKYHVLHINTTKNNPVMSLQDQVRFVKNITSWKEMKPGFYHGHVSYLDFAKFGVKKKPIYINVIRDPIERLVSYYYFLRFGDDYRPGLRRRKQGDKKTFDECVAEGGSDCAPEKLWLQIPFFCGHSSECWNVGSRWAMDQAKYNLINEYFLVGVTEELEDFIMLLEAALPRFFRGATELYRTAPDTATPSHRHGPICGSKSISSLLVKVSPVCKDSHCLGKCSRNGLSAV | not soluble |
| QRISLEIMTLQPRCEDVETAEGVALTVTGVAQVKIMTEKELLAVACEQFLGKNVQDIKNVVLQTLEGHLRSILGTLTVEQIYQDRDQFAKLVREVAAPDVGRMGIEILSFTIKDVYDKVDYLSSLGKTQT | soluble |
| RATDPFIVKHPLTGEKTIIAGYPWFSDWGRDVMISFPGLVLIPRRFEDAKSILKNFSSNCRRGLIPNNFPAFGGEPVYNTVDASLWFIHSLSRYFAYTEDLLFLSDIWGTVEDIIDNYSKGTDFGIGMDSDYLIRQGPQLTWMDAKVNDIPVTPRAGKACEINALWYNALRTACRLGDLLGRDTSSYETLAAGVASNFERVFWNPENNCLHDIVSEDKAGNQIKDSSIRPNQIFAVSLPYTMLSPEKEKAIVDRVEKDLLTPFGLRTLSLDDPSYIGLYRGGSESRDSAYHNGTVWPWLLGPYVKAYRKVHNYSKKSLEDMRALLQGFDSHLETAGIGTISEVFDGDFPHSPGGCIAQAWSVAEILRAYVEDVLGIKP | not soluble |
| MEKPSPTRRQTSSLSTISNGMTMTNDNRDTTNTNSGSTSSNNSQPSSSSTPPAASGPVTDRTKVNYVPKSDDPSSFQYYPDDPENPVNKYKFALKADSQYYDPCEESSKLSFQCLERNDYDRSKCQEYFDAYRECKKQWLTARRKNRQQWE | soluble |
| SNAQDVPVTQVMTPRPVVFRVDATMTINEFLDKHKDTPFSRPLVYSEQKDNIIGFVHRLELFKMQQSGSGQKQLGAVMRPIQVVLNNTALPKVFDQMMTHRLQLALVVDEYGTVLGLVTLEDIFEHLVGE | soluble |
| MGSDKIHHHHHHQKEGSLKIGKEGAESGFINLRVEIPPGAFGKQKVLKITRLSDEERKLYPDVFVGDLYRVEFADGVDEFALKPIRLKYYFDAKYLRGENYNNLTFAYATEDGGYRIIPGSMIGKDERGYYVEAFTYHLSVFGVVLRSAGFQKHGIRLLREAVNSSGPAVLLVPGEDPTFEGVVKDNNIWETIFPDRTIMTYEYALYEPRSLAYSEMYRSFIEKEGRRSFIDFESDFLSQEILKYSQYEFDILAHGTGGLIVLRMLQRHPEVNNVRKVVLLSTPVQGTNVVNPLYFSSIFYGKDPEVLEDIFGIEWTKLKMLTLHIRNLIDTLGEVVQEILPDSQLVKELGGFSRNDVEIVSICGDTPPYGVDVSGTELERFYPEFVKGRGDGFVSIQSCRVGKVEQLSGNFYDLYSREENVAYIRELLKYEVQVFSGFRSDDYEEYLPSKNPELSEESAQKVVEVKETEGTEFPVLPVNILFENFLERIRSLELSSYLSGALVGKEVYIATESGVFAWDKKVLDKKIEFFKKIEDYASFVGEGDIFIIDNIGIKKYAPFPLVGDISDALITRNAIIYARVVPGGVRYYLFRNGAEKLIATSPGTTVRMKSENGNYLLITDGEVVAIGSDFKEKGRVLSSLFGEKVKIVDASFKDDAFYILLNDGSIAFVSSSRSETKNYGLAVPKKVLNFQGRILVVYDGVILDLSAGKAQRFDRGIIDVFPGNESLFIVFDEKVRVSVEEWWLSKD | not soluble |
| MSLTQNIRPLPQFKYHPKPLETGAFEQDKTVECDCCEQQTSVYYSGPFYCVDEVEHLCPWCIADGSAAEKFAGSFQDDASIEGVEFEYDEEDEFAGIKNTYPDEMLKELVERTPGYHGWQQEFWLAHCGDFCVFIGYVGWNDIKDRLDEFANLEEDCENFGIRNSDLAKCLQKGGHCQGYLFRCLHCGKLRLWGDFSEGGSHHHHHH | soluble |
| MGNRSSSHYPPPPHWMHQRTSYSTTTSPYPEAKQRPIAPGAFAEPYMHHNPHHPQSKAQMRRSMISLNADSGYMGGPDSERLRQMRGSRMSLNQIDFEPAMMPPPRILIPPDAKTLKKLEKMEKKHQKLMKKLGARGIPIQMPVPPPPPMHPMYSRAISYDDLHRMHEAPEIDVRMRQRDWRTSDERRGLPTRRETQSQYVKHNYSSTNRRAELNGSLASSSPMTSSEEGGHSSDPWNTSSISSGKRDIISPPMYSSTPHHHNHHNHQQLQHHQVIKSPQPPITKTIEVKVERSEKVEQQVSEPTKRAPPTAAQTASSTSSRIQHNQTLNNSNATYAQPIIRRQPSYGSRSSSIATSQMRCDQSEIDFSWVNEEEDKLKRESKRIDSLPEFYFGMDPPPVPSDNEKENDEKRNRRKSSVLEKTAAFEIEARRNDRKEPSFLSRSSHQLLTTSEIPPADYSPLSIHTKEIGGPAERRIYRIQKQQQQHSSEDRRYRSSIAF | not soluble |
| MENSNENDIVLTWWDWGHFVTYYARRSPVAQGSPNSGVAGYYLGLVDNGWAQSLGVDYVIVSLYDILKFEAIVDTAKLSRKWENISRADYGVDFLKLTESTGSILRFDSQYSTLIVKEGNIRVILSGKVVYPREAIIESNGRIKNLKYPARSGVYVYVNLDYGYAILEHHHHHH | not soluble |
| MTIYQHLLILWSSLFASTFAGTAEEVAKHLELGSQFLARAQFADALTQYHAAIELDPKSYQAIYRRATTYLAMGRGKAAIVDLERVLELKPDFYGARIQRGNILLKQGELEAAEADFNIVLNHDSSNNDVQEKTALIEQHRQLRHQIKSAYAGGDCATVEEYINHIIEIQVWDASLYRMRAKCLEERGELKKAIHDMRIVSKLSTDSTDTMFETSKLLYTVGDLEESLNVIRECLKLNPDHKSCYPFYKKLRKVVKSLESMKKKVENSDWMACLEEGQKTMKFDPTPSVQLNVFRITNRCQREAGHISEAIAECNEILNDDPSDADILCERAEAHILDEDYDSAIEDYQKATEVNPDHREAKEGLEHAKRLKTQAGKRDYYKILGVKRNASKREITKAYRKLAQKWHPDNFSDEEEKKKAEKKFIDIAAAKEVLQDEEKRRQFDQGVDPLDPEAQRQGGGHHGGFGHGFPHGFHHFGGGGGGEHSFKFNWG | not soluble |
| MGHHHHHHGGHMSLEIVKEVERLIREGKILDAFELVKQSAPEELRERIEKSFRDAEEIKKLDGIWKKLMLILHFVYASQDAVERQDKQSLVSCVVSSVNAIKLTIELGMKSITPVLMRNAARALILMDMKENAERMYTEAEKICEENRDEEMLAAIENDLATLYYDMGKYNEAKVKAEEALEIRRKIGTKEELAESLATASEIYVKLGDFDEAEECYREAEKLYRELVEEAESFKLNLAILLSNYAMFRKKLGRYQEAEKMFKEALEIFQNLERIDADFMQFVAAAYRHLGDLYREMKEYSKAEEYYKLSREKFRDIQKRWESVASEGGS | soluble |
| MGSDKIHHHHHHMRVELNGILPVCPCSGRGYLDNARLFRQIEPIVRKQSPFMNSRSLLCLLAVSLCASPVWADTVWMKNGDRLSGKIKVFDGGKLLLETPYGGSIALDWKQVQTLESDQEMLVKQDAYSGEKAKSLKAAEAGKVTLANGDSPKTVALASIEQIMKPKPLVEDFVWKGNVDVALDYKRAENDTDDYDVGFKTTARHGRWRHNAEGEYNRETKDDVTTTNNWSAEYALDRFITDKWFWQGRAEYKRDHIEDLARQRTVGTGPGYQFWDDELGAFSLGSLINRTDFEYRDGGKDNFYSAAVKWDYTRYLIGKNVQLFTNGEFAKPLGGVADYSLDAEVGLRYKVTEWASLNLKAEKDIITGTRESDLDKTRYTAGFGVTW | not soluble |
| MGREFLDLFEQWAESYDRSVEGYDEQYRDVFAGYDRILSTVADKAGQVVLEFGVGTGNLTKKLLERGKRVYGIEPSAPMRKKAAEKLNGRAVILEGDFLQFPTPPEPIDTIASTYAFHHLTDAEKDEALAKYSQLLHPGGKIVFADTAFRDKEAFRQAIEEARARGFHDLADDLEREYYTTLDVLASLFSKHGFSASFAQQNAFVWVMEAVKQTT | not soluble |
| MGSDKIHHHHHHMIINRSCLKEFAEKVHFLPSSLTKSDLLTDPFRLHQENELGIYYSPHNEFINRDASLVIAGITPGFSQMKTAYETAAESLLQGGTLEQMAVDTKIAAGFSGSMRHNLITMLDLCGLPQAFGIQSAAKLFGELRHMLHTTSVIKYPVFIQQKNYTGYKPAITHSPILSTYAFGHFPAELNHVTGPALLIPLGKAAETVCETLIRQHSLQNLICLNGFPHPSGANGHRLKQFSKNKEQLERQIRSFAALVDFAIEKRK | not soluble |
| MDVTNDDYIRLLSALLPPGPVWSASDPAIAGAAPSLTRVHQRADALMRELDPRTTTELINRWERLCGLPDECIPAGTQTLRQRQQRLDAKVNLAGGINEDFYLAQLAALGRPDATITRYDKSTFTCSSACTDAVNAPEWRYYWQVNMPATTNSTWMTCGDPCDSALRIWGDTVVECVLNKLCPSHTYVIFKYPE | soluble |
